{
  "source": "patent CN106366186A",
  "about": "(ATTOGEN BIOMEDICAL (SUZHOU) INC, dated 2017)",
  "key": {"His-HPV16 E7重组蛋白 (HPV16) [1]": {"molecular_target": "His-HPV16 E7重组蛋白 (HPV16) (UniProt P03129)", "assay": "ELISA, scFv 5μg/ml on 0.1μg/ml coated antigen, anti-Flag-HRP; selection threshold"}, "His-Vac": {"molecular_target": "T1, His-Vac (HPV16)", "T1 peptide": "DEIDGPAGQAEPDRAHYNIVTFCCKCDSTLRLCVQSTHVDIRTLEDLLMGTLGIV", "assay": "indirect ELISA on peptides"}, "[2]": {"molecular_target": "T2, 细胞内源的HPV16 E7蛋白 (CaSki, Siha cells, HPV16-positive cervical cells) (HPV16, UniProt P03129 1-98)", "T2 construct": "whole, on cells; Intracellular protein detected by immunocytochemistry in fixed, permeabilised cells; also called HPV16 E7内源蛋白", "T2 sequence": "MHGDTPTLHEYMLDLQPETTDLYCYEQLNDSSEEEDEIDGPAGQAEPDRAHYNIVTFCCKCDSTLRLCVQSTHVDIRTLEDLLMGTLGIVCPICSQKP", "assay": "immunocytochemistry, CaSki cells"}, "[3]": {"molecular_target": "T3, 细胞内源的HPV18 E7蛋白 (HeLa, Siha cells) (HPV18, UniProt P06788 1-105)", "T3 construct": "whole, on cells; Intracellular protein detected by immunocytochemistry in fixed, permeabilised cells", "T3 sequence": "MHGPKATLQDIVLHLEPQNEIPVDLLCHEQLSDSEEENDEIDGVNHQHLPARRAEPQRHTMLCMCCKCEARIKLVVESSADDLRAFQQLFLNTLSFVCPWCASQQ", "assay": "immunocytochemistry, HeLa and Siha cells"}, "His-HPV18 E7重组蛋白": {"molecular_target": "T4, His-HPV18 E7重组蛋白 (HPV18, UniProt P06788 1-105)", "T4 construct": "also called His-HPV18 E7融合蛋白; not shown: His tag", "T4 chain": "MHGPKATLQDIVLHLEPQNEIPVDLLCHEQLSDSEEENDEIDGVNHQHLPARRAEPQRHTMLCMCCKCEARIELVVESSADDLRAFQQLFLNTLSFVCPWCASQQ", "assay": "indirect ELISA, 0.5μg/ml coat, antibody 1μg/ml"}, "His-HPV16 E7重组蛋白 (HPV16) [4]": {"molecular_target": "His-HPV16 E7重组蛋白 (HPV16) (UniProt P03129)", "assay": "indirect ELISA, antibody 0.1μg/ml on 0.1μg/ml coat; threshold for a positive clone"}},
  "data": [
    {"binder": "HPV16 E7单链抗体scFv001 (scFv, V domains shown) VH: QSLEESGGRLVTPGTPLTLTCTASGSDISSYAISWVRQAPGKGLEWIGSISNSGNTYYASWAKGRFTIAKTSTTVTLKMTSLTTADTATYFCTRGAISGTPIWGPGTLVTVSS VL: DPMLTQTASSVSAAVGGTVTISCQSSQSVYDNNWLGWYQQKPGQPPKLLIYSVSTLASGVPSRFKGSGSGTQFTLTISDLECDDAATYYCAGGFSGNIYTFGGGTNVEIK", "values": [
      {"measurement": "OD值", "setting": "His-HPV16 E7重组蛋白 (HPV16) [1]", "value": "> 2", "unit": "OD"}
    ]},
    {"binder": "HPV16 E7兔单克隆抗体RAB-001 (antibody, V domains shown, also called RAB-01; anti-HPV16 E7单抗RAB-001) VH: QSLEESGGRLVTPGTPLTLTCTASGSDISSYAISWVRQAPGKGLEWIGSISNSGNTYYASWAKGRFTIAKTSTTVTLKMTSLTTADTATYFCTRGAISGTPIWGPGTLVTVSS VL: DPMLTQTASSVSAAVGGTVTISCQSSQSVYDNNWLGWYQQKPGQPPKLLIYSVSTLASGVPSRFKGSGSGTQFTLTISDLECDDAATYYCAGGFSGNIYTFGGGTNVEIK", "values": [
      {"measurement": "binding result", "setting": "His-Vac", "value": "no binding (tested: antibody 1μg/ml, peptide coat 2μg/ml)"},
      {"measurement": "binding result", "setting": "[2]", "value": "binds"},
      {"measurement": "binding result", "setting": "[3]", "value": "binds"},
      {"measurement": "binding result", "setting": "His-HPV18 E7重组蛋白", "value": "binds"},
      {"measurement": "OD值", "setting": "His-HPV16 E7重组蛋白 (HPV16) [4]", "value": "> 1", "unit": "OD"}
    ]},
    {"binder": "HPV16 E7兔单克隆抗体RAB-034 (antibody, from another filing, V domains shown) VH: QSLEESGGRLVTPGTPLTLTCTVSGIDLSSYAMGWVRQAPGEGLDWIGSIGSSGRTYYANWAKGRFTISKTSSTTVDLKMTSLTTEDTATYFCARGVVNRSDIWGPGTLVTVSS VL: DPMLTQTASSVSAAVGGTVTISCQSSQSVYDNNWLGWYQQKPGQPPKLLIYGASNLESGVPSRFKGSGSGTQFTLTISDVQCDDAATYYCAGGYSGNRYVFGGGTEVVVK", "values": [
      {"measurement": "OD值", "setting": "His-HPV16 E7重组蛋白 (HPV16) [4]", "value": "> 1", "unit": "OD"}
    ]}
  ]
}
